Test results published in the supplement of paper PMC10126150.
± gives the standard deviation of the averaged measurements.
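Further: ATP exposure 15 min at 22 °C before imaging.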

The sequences below were run on ATP (assay: switch fluorescence ratio, 500 uM ATP over buffer (Cy3 cluster intensity, sum of 5 cycles each) (fold (ratio)); higher = stronger signal-on switching upon ATP binding; sequences stand for … in TCGTCGGCAGCGTCAGATGTGTATAAGAGACAGTTTTTTTTTTTTTTTTTTTTTTTTT…TC). Conditions: aptamer strand: ATP DNA aptamer (quencher-CACCTGGGGGAGTATTGCGGAGGAAGG + anchor), 100 nM annealed; ATP concentration: 500 uM.
How it was run: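 Values give the fluorescence ratio for each switch-domain sequence, averaged from per-cluster ratios of summed target-cycle to summed buffer-cycle Cy3 intensity. The Cy3-labelled switching-strand clusters sat on a modified Illumina MiSeq flow-cell, were annealed to 100 nM quencher-labelled ATP aptamer, and were imaged in selection buffer, then after 15 min with 500 uM ATP at 22 °C. Five cycles ran with NaOH stripping and re-annealing between them, and clusters outside 100-1000 RFU were excluded.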
Work on AGACACTTAA yielded a switch fluorescence ratio of 1.04 ± 0.023.
In the case of GTAATCATTT, the switch fluorescence ratio is reported as 0.9667 ± 0.0093.
GTTTGCAGCA gave a switch fluorescence ratio of 1.03 ± 0.027.
With TGGCTGTACA the switch fluorescence ratio was 1.01 ± 0.025.
TCTTGGTTGA gave a switch fluorescence ratio of 0.968 ± 0.02.
With TTTCATGGGG the switch fluorescence ratio was 1.014 ± 0.0049.
For AATAATTGTG, the switch fluorescence ratio was 1.02 ± 0.028.
In the case of TTTTCTGCCT, the switch fluorescence ratio is reported as 1.07 ± 0.089.
GGAGAACTTA was tested, and the switch fluorescence ratio was 1.04 ± 0.051.
GAGTAGTGGG gave a switch fluorescence ratio of 0.982 ± 0.037.
With GTATGGGCGG the switch fluorescence ratio was 0.991 ± 0.035.
In the case of GATACATTAT, the switch fluorescence ratio is reported as 0.998 ± 0.028.
Sequence AAAATGGCAG has a switch fluorescence ratio of 1.004 ± 0.0089.
Work on CGCTTAAAGT yielded a switch fluorescence ratio of 1.03 ± 0.05.
In the case of TATACTGCAC, the switch fluorescence ratio is reported as 1.54 ± 0.032.
For CAGATGGGGA, the switch fluorescence ratio was 1.012 ± 0.0036.
For TGGTACGTAG, the switch fluorescence ratio was 1.03 ± 0.034.
TTCATATGCG gave a switch fluorescence ratio of 0.995 ± 0.016.
CAGGTAGGTA gave a switch fluorescence ratio of 0.977 ± 0.014.
In the case of TCGTGAGGTG, the switch fluorescence ratio is reported as 1.02 ± 0.068.
AGTCGAAATG was tested, and the switch fluorescence ratio was 0.989 ± 0.028.
With TTGGTTACAT the switch fluorescence ratio was 0.994 ± 0.013.
TGGGTATATT showed a switch fluorescence ratio of 0.987 ± 0.011.
In the case of TAAGGTTTTT, the switch fluorescence ratio is reported as 1.03 ± 0.063.
With AAGGTTCGAT the switch fluorescence ratio was 0.984 ± 0.049.
In the case of AAAGTGTCGT, the switch fluorescence ratio is reported as 0.973 ± 0.028.
CTAGGGTGGA showed a switch fluorescence ratio of 1.05 ± 0.023.
In the case of TCCACACGCT, the switch fluorescence ratio is reported as 2.14 ± 0.25.
With TAAAATTGTA the switch fluorescence ratio was 0.9917 ± 0.0035.
With TGGTTGTACG the switch fluorescence ratio was 1.01 ± 0.027.
With GGGGAGTCTT the switch fluorescence ratio was 0.972 ± 0.057.
Sequence TTATGTGCGA has a switch fluorescence ratio of 1.02 ± 0.013.
In the case of ATGTGGCCGG, the switch fluorescence ratio is reported as 0.997 ± 0.024.
Work on AGGGGGGTAT yielded a switch fluorescence ratio of 0.993 ± 0.027.
Work on ACAGAGGGAG yielded a switch fluorescence ratio of 1.02 ± 0.011.
Work on TCAAGTGAGG yielded a switch fluorescence ratio of 1.01 ± 0.011.
Sequence CGTTTGGGTA has a switch fluorescence ratio of 0.999 ± 0.041.
TTGGGGGCA showed a switch fluorescence ratio of 1.03 ± 0.045.
CCAGAAGTGA gave a switch fluorescence ratio of 1.08 ± 0.018.
GCGCTGGGCA gave a switch fluorescence ratio of 1.01 ± 0.035.
For CGGTGTGTGG, the switch fluorescence ratio was 0.999 ± 0.032.
CGCTGGTGGG gave a switch fluorescence ratio of 1.01 ± 0.029.
In the case of GGGGGATGTT, the switch fluorescence ratio is reported as 0.997 ± 0.026.
Work on CCAGAGGTAA yielded a switch fluorescence ratio of 1.04 ± 0.027.
In the case of AGGTTGGGCA, the switch fluorescence ratio is reported as 0.984 ± 0.0096.
CCGGTCTATT was tested, and the switch fluorescence ratio was 1 ± 0.048.
AAGTGACCTT showed a switch fluorescence ratio of 1.135 ± 0.0039.
For GAAGTTAGGG, the switch fluorescence ratio was 0.981 ± 0.032.
In the case of AAAGCGTGGA, the switch fluorescence ratio is reported as 1 ± 0.011.
Sequence TAGGGAGGGT has a switch fluorescence ratio of 1.11 ± 0.2.
For TTAGGGGGAT, the switch fluorescence ratio was 0.988 ± 0.019.
GGTGATGTTG gave a switch fluorescence ratio of 0.9611 ± 0.0055.
CTGTGGCTGG was tested, and the switch fluorescence ratio was 0.9795 ± 0.0073.
With TGGGCTGCTT the switch fluorescence ratio was 0.965 ± 0.017.
CAATGGCCGA was tested, and the switch fluorescence ratio was 0.9978 ± 0.0068.
With TGAAAGTATT the switch fluorescence ratio was 1 ± 0.022.
CTAGGGTTGT showed a switch fluorescence ratio of 1.02 ± 0.045.
In the case of TATGATGCAT, the switch fluorescence ratio is reported as 0.991 ± 0.028.
With AGTTTGGTGG the switch fluorescence ratio was 0.942 ± 0.067.
In the case of CGTAGTAGGC, the switch fluorescence ratio is reported as 1.12 ± 0.1.
CAGGGCGACA was tested, and the switch fluorescence ratio was 0.9924 ± 0.0012.
Sequence ATTTTAGAGT has a switch fluorescence ratio of 1.018 ± 0.0063.
For GAATACGGTT, the switch fluorescence ratio was 1.26 ± 0.44.
TGGGTATACG was tested, and the switch fluorescence ratio was 1.01 ± 0.049.
For GATGGGGCGC, the switch fluorescence ratio was 0.975 ± 0.069.
Work on CGAACTGGGT yielded a switch fluorescence ratio of 1.03 ± 0.028.
CTGGATTTAA showed a switch fluorescence ratio of 1.0192 ± 7.7e-05.
For TCGTTGGCAA, the switch fluorescence ratio was 2.3 ± 0.23.
TGGCTGTTTT gave a switch fluorescence ratio of 1.04 ± 0.042.
With CACTCGCCCG the switch fluorescence ratio was 1.11 ± 0.042.
TGACGAGTAA gave a switch fluorescence ratio of 1.5 ± 0.28.
CCTTTCATGC showed a switch fluorescence ratio of 1.65 ± 0.16.
With GGGTTAGGGA the switch fluorescence ratio was 0.996 ± 0.025.
For CAGGATCATC, the switch fluorescence ratio was 0.9884 ± 0.0035.
AGGGGTTAAT gave a switch fluorescence ratio of 0.985 ± 0.035.
In the case of TGGCGGGTCG, the switch fluorescence ratio is reported as 1.06 ± 0.079.
GAGAGTCTAG was tested, and the switch fluorescence ratio was 0.989 ± 0.015.
GTGTATACAT showed a switch fluorescence ratio of 0.977 ± 0.066.
Work on TGTCCGGTGG yielded a switch fluorescence ratio of 1.01 ± 0.066.
In the case of GATGGGGCGT, the switch fluorescence ratio is reported as 0.989 ± 0.055.
In the case of TGTTTGGGGC, the switch fluorescence ratio is reported as 0.989 ± 0.019.
In the case of AAATCCGCTT, the switch fluorescence ratio is reported as 1.27 ± 0.26.
GTATAAAACT showed a switch fluorescence ratio of 0.9986 ± 0.0087.
Work on AGAGCATATG yielded a switch fluorescence ratio of 1.02 ± 0.017.
Sequence TACTCGCCAT has a switch fluorescence ratio of 1.13 ± 0.035.
GGTGTTAGG was tested, and the switch fluorescence ratio was 1 ± 0.016.
Work on AGGTAGAAGA yielded a switch fluorescence ratio of 0.97 ± 0.013.
For AAGGGCGGC, the switch fluorescence ratio was 1.03 ± 0.018.
In the case of AAGGGGCCCT, the switch fluorescence ratio is reported as 1.0195 ± 0.00095.
For TACAGGGGGG, the switch fluorescence ratio was 1 ± 0.027.
Work on TAACACTCCT yielded a switch fluorescence ratio of 1.1 ± 0.02.
With TATGTGAACT the switch fluorescence ratio was 0.9986 ± 0.0019.
TTTATCTTTT gave a switch fluorescence ratio of 1 ± 0.028.
For GGGTCCTAAG, the switch fluorescence ratio was 0.975 ± 0.038.
ACGCCACATT showed a switch fluorescence ratio of 1.55 ± 0.091.
CACTGCGTCT showed a switch fluorescence ratio of 1.07 ± 0.11.
With TTTTGAACGC the switch fluorescence ratio was 1.065 ± 0.0016.
With TTTGGTAAGT the switch fluorescence ratio was 1.022 ± 0.01.
CTCGTTCCGG gave a switch fluorescence ratio of 0.997 ± 0.043.
AAGAGAGTAT was tested, and the switch fluorescence ratio was 0.992 ± 0.0083.
